Read-outs that look alike come from different tables or passages of the source. Residues, ends and D or L forms follow the SMILES beside them. *: point of attachment. 5FAM = O=C1OC2(c3ccc(O)cc3Oc3cc(O)ccc32)c2ccc(C(=O)*)cc21; FAM = carboxyfluorescein
Tests used:
ureter [1] = assay: Fluorescent visualization of the ureter after intravenous administration, mouse model; assay type: in vivo
Protocol: FIG. 1: Bright field and fluorescence overlay image of a ureter in a living wild type mouse following intravenous administration of about 2000 nanomoles of a fluorescent conjugate (SEQ ID NO:747). Images were obtained 2 hours following administration using a customized fluorescence detection microscope. Left panel: White reflectance image. Right panel: fluorescence overlay.
(§1) A rodent model was to use to evaluate the dynamics of fluorescent visualization of 5-FAM-QVPWEEPYYVVKKSSGG-NH2 (HNP401-N-2 with GG linker; SEQ ID NO:747) following intravenous administration. The conjugate was administered in a wide range of amounts and fluorescence was detected using a customized microscope. […] Rather it reflects fluorescence of urine flowing down the ureter from the kidney to the bladder.

ureter [2] = assay: Time course of ureter illumination in rodent models; assay type: in vivo; conditions: rodent model
Protocol: as §1
These include molecules consisting of related HNP401 peptides conjugated to FAM, as well as molecules consisting of related HNP401 peptides conjugated to other fluorescent moieties. In addition, the studies presented here allow concurrent visualization of nerves in conjunction with ureters.

[3] = Bioanalysis of fluorescent conjugate in the urine of surgery patients (LC-MS/MS); assay type: in vivo, human; conditions: for Test Drug (ng/mL) in urine / level at 30 min after infusion: 500 mg intravenous; for level at 30 min after infusion: human, urine, iv, 500 mg, read-out: Test Drug (ng/mL) in urine
Protocol: Urine samples were collected 30 minutes before intravenous administration of 500 mg of parent test drug (corresponding to the fluorescent-conjugated peptide, SEQ ID NO:747), 30 minutes after infusion prior to head and neck surgery, and 22 hours later. The concentration of intact parent test drug was determined by liquid chromatography with tandem mass spectrometry (LC-MS/MS) using a qualified bioanalytical method. Also evaluated was the presence of metabolites M3-M8 (initially identified from in vitro studies) corresponding to shortened versions of the parent peptide conjugated to the fluorescent moiety.

[4] = test system: rat sciatic and prostate nerves; conditions: several hours after intravenous administration; cited from earlier work
[5] = test system: human resected nerve tissues; conditions: human tissue, topical administration; cited from earlier work
[6] = test system: rodent resected nerve tissues; conditions: rodent tissue, topical administration; cited from earlier work
[7] = in vivo; cited from earlier work
nerve = conditions: cited from earlier work; for nerve detection following intravenous administration: rodent models

Row | Molecule | ureter illumination (fluorescence) (ureter [1]; 2 hours following intravenous administration of about 2000 nanomoles (~200 mg/kg)) | ureter illumination (fluorescence) (ureter [1]; intravenous, 100 nanomoles to 2000 nanomoles (~10 mg/kg to ~200 mg/kg)) | time at which fluorescent visualization of the ureter was first observed following conjugate administration (ureter [2]; early observation) | time up to which fluorescent visualization of the ureter was observed following conjugate administration (ureter [2]; extended time course) | detection in urine, number of subjects ([3]; 30-minute time-point, test drug or fluorescent metabolites, five subjects evaluated) | Test Drug (ng/mL) in urine ([3]; Subject 1, 30 min after infusion) | Test Drug (ng/mL) in urine ([3]; Subject 2, 22 hours) | Test Drug (ng/mL) in urine ([3]; Subject 3, 22 hours) | Test Drug (ng/mL) in urine ([3]; Subject 4, 30 min after infusion) | level at 30 min after infusion ([3]; Subject 2, 30 min after infusion) [ng/mL] | level at 30 min after infusion ([3]; Subject 3, 30 min after infusion) [ng/mL] | level at 30 min after infusion ([3]; Subject 5, 30 min after infusion) [ng/mL] | fluorescence in rat sciatic and prostate nerves [4] | fluorescent labeling of resected nerve tissues [5] | fluorescent labeling of resected nerve tissues [6] | half-life in the blood [7] [min] | nerve detection following intravenous administration (nerve) | serum half-life (as measured by serum fluorescence) [7] | half-life of nerve fluorescence (nerve; in vivo) | persistence of fluorescence in tissues (nerve; in vivo)
1 | CC(C)[C@H](NC(=O)[C@H](Cc1ccc(O)cc1)NC(=O)[C@H](Cc1ccc(O)cc1)NC(=O)[C@@H]1CCCN1C(=O)[C@H](CCC(=O)O)NC(=O)[C@H](CCC(=O)O)NC(=O)[C@H](Cc1c[nH]c2ccccc12)NC(=O)[C@@H]1CCCN1C(=O)[C@@H](NC(=O)[C@H](CCC(N)=O)NC(=O)c1ccc2c(c1)C(=O)OC21c2ccc(O)cc2Oc2cc(O)ccc21)C(C)C)C(=O)N[C@H](C(=O)N[C@@H](CCCCN)C(=O)N[C@@H](CCCCN)C(=O)N[C@@H](CO)C(=O)N[C@@H](CO)C(=O)NCC(=O)NCC(N)=O)C(C)C [SEQ ID NO:747, 5-FAM-QVPWEEPYYVVKKSSGG-NH2] (5FAM-QVPWEEPYYVVKKSSGG-NH2) | readily illuminated | revealed ureter illumination | less than 1 hour | at least 6 hours | detected in four of five subjects | BQL* (BQL: Below Quantitation Limit (10 ng/ml)) | BQL (BQL: Below Quantitation Limit (10 ng/ml)) | BQL (BQL: Below Quantitation Limit (10 ng/ml)) | BQL (BQL: Below Quantitation Limit (10 ng/ml)) | 11.5 | 19 | 10.1 |  |  |  |  |  |  |  | 
2 | FAM-HNP401: FAM conjugated to the C-terminal cysteine of acetylated HNP401 with GCC linker (Ac-SGQVPWEEPYYVVKKSSGGC-CONH2) (Ac-SGQVPWEEPYYVVKKSSGGC(FAM)-NH2) |  |  |  |  |  |  |  |  |  |  |  |  | observed | fluorescent labeling | fluorescent labeling | 15 | sensitive nerve detection |  |  | 
3 | FAM-NP41: carboxyfluorescein (FAM) coupled to the C-terminal lysine of acetylated NP41 (Ac-SHSNTQTLAKAPEHTGK) via a lysinamide linkage (Ac-SHSNTQTLAKAPEHTGK(FAM)-NH2) [reference compound] |  |  |  |  |  |  |  |  |  |  |  |  |  | fluorescent labeling | fluorescent labeling |  | sensitive nerve detection | about ten | about 50 minutes | persist at a low level in tissues for hours
